Measurements as given in patent US20220296727A1, “Immunoconjugate” (DendroCyte BioTech Pty Ltd, priority 2019, published 2022).

Legend:
HEL = assay: Cytotoxicity assay on HEL erythroleukemic cell line; type: cell-based
Description: (§1) Kinetic analysis was performed as above.
DCR-2 and an isotype control mAb were conjugated to a PBD dimer toxin, to assess potential cytotoxicity. The cytotoxicity of DCR-2-PBD and the isotype-PBD were tested against CD300f+ and CD300f− cell lines and the results are shown in FIG. 6 and Table 2.

[1] = system: CD300f- lymphoma cell line Mino; assay: Bystander killing assay; type: cell-based
Description: as §1
AML surface targets, including CD300f, can be heterogeneously expressed within AML cases and we considered bystander killing advantageous for an effective ADC. To determine whether DCR-2PBD effects cells not expressing CD300f, we investigated bystander killing by comparing the viability of the CD300f− lymphoma cell line Mino cultured on its own, with Mino cultured mixed with HL-60 in the presence of DCR-2-PBD in mixtures of 50% HL-60/50% Mino, and 25% HL-60/75% Mino. Cells were incubated for 96 hours with various concentrations of DCR-2PBD (FIG. 11). […] The reduction in the Mino cells when combined with HL-60 confirm the ability of DCR-2-PBD to generate bystander killing.

[2] = system: HSPC colony forming units; assay: Colony forming unit toxicity assay, cord blood HSPC; type: cell-based, human
Description: CFU colonies were plated at 2×10^4 cells/well in semi-solid methylcellulose medium (MethoCult Classic, Stemcell Technologies) in a 24 well plate (Corning, N.Y., USA), were cultured at 37° C. in 5% CO2 for 14 days and counted via microscopy. Whole cord blood PBMC was used. CD34^+ progenitors were continuously exposed to multiple concentrations of DCR-2 with equal concentrations of a secondary goat anti mouse antibody conjugated to PBD dimer. As a control, only the secondary PBD dimer conjugated antibody was used as above.
CB cells, plated at 2×10^4 cells/well in semi-solid methylcellulose medium (MethoCult Classic, Stemcell Technologies) in a 24 well plate (Corning, N.Y., USA), were cultured at 37° C. in 5% CO2 for 14 days when colony forming units (CFU) were scored. DCR-2-PBD or isotype-PBD was added to each well for continuous exposure. Three CB samples were tested with duplicate wells performed in each experiment.

dendritic cells = assay: Activation marker expression on dendritic cells after LPS; type: cell-based, human; conditions: HLA-DR, CD11c, CD80, CD83; 200 pmol
Description: The activity of DCR-2PBD on the upregulation of activation markers on DC was measured by incubating whole PBMC with DCR-2PBD or no antibody for […] before washing, followed by 12 hours of LPS stimulation. Control DC were not exposed to DCR-2PBD or LPS. Myeloid DC were gated out by excluding dead cells, Lin^+(CD3, CD20, CD19, CD56, CD14), then gating on HLA-DR^+ and CD11c^+ cells. The activation markers CD80 and CD83 were assessed via flow cytometry. The changes on activation were determined by comparing activated DC incubated with or without DCR-2PBD compared to inactivated DC.
PBMC were incubated in complete RPMI media with or without DCR-2-PBD (200 pmol). After 12 hours, washed cells were incubated for a further 12 hours with or without LPS then phenotyped for the expression of activation markers on DC populations. MoDC were derived from CD14+ monocytes as described previously (Fromm et al. J Leukoc Biol. 2020; 107(2):323-339). DCR-2-PBD or isotype-PBD (200 pmol) were added for 72 hours prior to enumeration of live cells by flow cytometry.

U937 cells = assay: U937 subcutaneous xenograft model in NSG mice; type: in vivo, mouse; conditions: for tumour growth compared to isotype-PBD (300 ug/kg): intraperitoneal, once
Description: NOD.Cg-Prkdc^scld//2rg^tm1Wjl/SzJ (NSG) mice obtained from Australian BioResources were housed under specific pathogen free conditions. In the subcutaneous model, 2×10^6 U937 cells were injected under the skin on the right flank. Tumours were measured daily with electronic calipers. When the mean volume of the tumours was >100 mm^3, DCR-2-PBD, isotype-PBD or PBS was injected intraperitoneally once. […] Tumour volume was measured until >1000 mm^3 when mice were euthanised as required by the ethics protocol.
In the flank injection model 2×10^6 U937 cells were injected subcutaneously into NSG mice and the subsequent tumors were measured daily via caliper to calculate the volume. Mice were injected with 150 ug/kg of DCR-2ADC, Isotype-ADC or an equal volume of PBS on day 6. Mice were euthanized once the volumes reached 1000 mm^3. Survival and tumor size was recorded.
To determine the effect of DCR-2PBD in a mouse model based on U937 cells, mice were injected subcutaneously with cell line U937. After 6 days, mice were administered PBS, […] of CMRF-81PBD or […] of DCR-2PBD intraperitoneally and monitored for tumour growth. Tumour volume and survival of the mice were assessed and the results are shown in FIGS. 17 and 18, respectively.

B1: DCR-2PBD: anti-CD300f mAb DCR-2 conjugated to pyrrolobenzodiazepine dimer via Cathepsin B-cleavable linker MA-PEG4-VA-PBD; drug to antibody ratio 3.3 (conjugate)
VH: MESGGGLVQPGGPLKLSCAASGFGFSGSWMSWVRQAPGKGLEWIGQINPDSSTINYTPSLKDKFIISRDNAKNTLYLQINKVRSEDTALYYCARRGFFEGYSAWFAYW
VL: ILMTQTPKFLLVSAGDRVTITCKASQSVSNDVAWYQQKPGQSPSLLIYYASNRNTGVPDRFTGSGYETDFTFTISTVQAEDLAVYFCQQDYTSPWTFGGG
IC50 (HEL): 0.544 nM | Mino viability vs Mino only control ([1]; 25% HL-60/75% Mino, 25 pM, 96 hours (p=0.0002)): significant reduction in viability | Mino viability vs Mino only control ([1]; 50% HL-60/50% Mino, 12.5 pM, 96 hours (p=0.0004)): significant reduction in viability | Mino viability vs Mino only control ([1]; 50% HL-60/50% Mino, 25 pM, 96 hours (p<0.0001)): significant reduction in viability | reduction in total CFUs ([2]; 7.84 pM (p=0.0033)): Significant reductions | inhibition of all major CFU subtypes ([2]; 32.9 pM): inhibited | reduction in total CFUs ([2]; 39.21 pM (p<0.0001)): Significant reductions | inhibition of all major CFU subtypes ([2]; 196.1 pM): inhibited | reduction in total CFUs ([2]; 196.1 pM (p<0.0001)): Significant reductions | up-regulation of activation markers on dendritic cells after LPS (dendritic cells): does not prevent up-regulation of activation markers | survival compared to isotype-PBD (300 ug/kg) (U937 cells; 150 ug/kg (p=0.0017)): significantly increased | tumour growth compared to isotype-PBD (300 ug/kg) (U937 cells; 150 ug/kg): delayed | survival compared to isotype-PBD (300 ug/kg) (U937 cells; 300 ug/kg (p=0.0017)): significantly increased | tumour growth compared to isotype-PBD (300 ug/kg) (U937 cells; 300 ug/kg): delayed
